Earlier results, collected in publication PMC6143667.

Target: PKA catalytic subunit (UniProt P17612)

PKA regulatory subunit RII (from UniProt P31323)
Kd: 0.1 nM
